In the supplement of paper PMC12764529:

Assay: folding stability dG unfold (combined trypsin and chymotrypsin); higher = more stable
Method: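 Folding stability of de novo designed mini-proteins (<80 aa, no Cys; designed by TrROS, TrMRF, ProteinMPNN and the joint model) was measured by cDNA display proteolysis with trypsin and chymotrypsin. Each protease was used at 11 concentrations in a threefold dilution series plus a no-protease condition. K50 was inferred by Bayesian fitting of sequencing counts, and dG unfold was derived against a sequence-predicted unfolded-state K50 (Tsuboyama et al. method). Sequences shown include variable-length N-terminal GS-type padding (SAGGSAGG...) inside a display construct carrying a PA tag. Rows were kept only if the AF2 dimer inter-PAE was >15, to exclude likely homo-oligomers.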

| Sequence | folding stability dG unfold |
| --- | --- |
| SAGGSAGGSAEEEKTVVEEKVEVKVEVKLKAPPPPEVTVSVELDEETNELKITASAEALKKSAGGSAGGSAG [r3_186_TrROS_Hall] | < -4.18 kJ/mol |
| SAGGSAGGSAEEISPEGVATRTLPDGRTVELTQDPAKGTVTTTVYTPSGTPVSSSTTPVNPSAGGSAGGSAG [r3_447_JUSTAS] | < -4.18 kJ/mol |
| SAGGSAGGSAEELAKKLAEELGVKVEVEEKDGKLVVKIEKKKAKPKPKKVEKKKYYSEEELKSAGGSAGGSA [r18_27_TrROS_Hall] | < -4.18 kJ/mol |
| SAGGSAGGSAGDKPIKIFWNPEFPGRVYIKTPDKERPVPLNDLEELGIDEVVPMEEAMEQSAGGSAGGSAGG [r17_88_TrROS] | < -4.18 kJ/mol |
| SAGGSAGGSAGGAMPSDVLSTTTEPVAPTGSKTVSAPDAVVTVTLDPNTPVATTKTYGVSAGGSAGGSAGGS [r10_965_JUSTAS] | < -4.18 kJ/mol |
| SAGGSAGGSAGGEKTIFIPPDNPEKLADEAQKKGLTVEREPNSWLKVNGKKIRIIIMPPSAGGSAGGSAGGS [r10_930_TrROS] | < -4.18 kJ/mol |
| SAGGSAGGSAGGEPEPIPFRIKPHDEDGKKKGTFPINPLQKKGIPAEEFADKNGFEIEISAGGSAGGSAGGS [r10_153_TrROS] | < -4.18 kJ/mol |
| SAGGSAGGSAGGGAKPNQPVKVKIKYELLREEKELLPDGSVKTKKEVKVEIEGYEDADFKSAGGSAGGSAGG [r7_919_TrMRF] | < -4.18 kJ/mol |
| SAGGSAGGSAGGGFEITLPDKPIKVLEARFIPEKKLVEVLAEHPDGVLVRGVFPPELKLGSAGGSAGGSAGG [r7_427_TrMRF] | < -4.18 kJ/mol |
| SAGGSAGGSAGGGHMIYVPPSATLEEAEKLAKELGIEDAEIIPVPEGEPLFFTPEWKLVSAGGSAGGSAGGS [r10_1083_JUSTAS] | < -4.18 kJ/mol |
| SAGGSAGGSAGGGKNRPVIPITEGDKDEAKEFADTFQKEWRRQNGEPAQNVDIDIVPTPSAGGSAGGSAGGS [r10_1216_TrROS] | < -4.18 kJ/mol |
| SAGGSAGGSAGGGKVYVFRAPDALVLVPVEENPDTDEFTVTVDPGGDDPDIAKKLAEALSAGGSAGGSAGGS [r10_582_TrMRF] | < -4.18 kJ/mol |
| SAGGSAGGSAGGGMTVEEDPSSNIVTERIEYPDSIVTITRKRTPNPSWVTLATTTTPLGSAGGSAGGSAGGS [r10_840_JUSTAS] | < -4.18 kJ/mol |
| SAGGSAGGSAGGGPGLSVTTTVLVPKDPSTSVLTVPLPPSATVTAVTPETNTVTVRTASSAGGSAGGSAGGS [r10_247_JUSTAS] | < -4.18 kJ/mol |
| SAGGSAGGSAGGGPMVTRTIPRGVVVTKAELKDDKPVKYTVVKEEPVPVTVRALPEELLSAGGSAGGSAGGS [r10_492_JUSTAS] | < -4.18 kJ/mol |
| SAGGSAGGSAGGGSSMPLIPRKIETVEKPFRLPNGDVVIETTEIDTDADVEIPSVEVVLKSAGGSAGGSAGG [r7_213_JUSTAS] | < -4.18 kJ/mol |
| SAGGSAGGSAGGGVRIKVEYPNNGQPHEFPIDENWTAESIKDKLEDRGLPPNHKITKIEPSAGGSAGGSAGG [r7_70_TrROS] | < -4.18 kJ/mol |
| SAGGSAGGSAGGIYEKAVEFAKAKGGKDIPVKIKYPDGSVKTLNVDDLPDLKSENVEIVPSAGGSAGGSAGG [r7_863_TrMRF] | < -4.18 kJ/mol |
| SAGGSAGGSAGGKIEVDVETERHDGRPYYEVEIRHPDNGKPVEIPMPMNNPEEALKAAKSAGGSAGGSAGGS [r10_271_TrROS] | < -4.18 kJ/mol |
| SAGGSAGGSAGGKIEVEEDPANGMYRVEIQFPENGKPIEVWVRPGRTLEKAKDKAKELMKSAGGSAGGSAGG [r7_138_TrROS] | < -4.18 kJ/mol |
| SAGGSAGGSAGGLTEEEILKKLGLSPDVELLEMPREPERGVYYVKVKKGEGPEEFVVEESAGGSAGGSAGGS [r10_17_JUSTAS] | < -4.18 kJ/mol |

| Sequence | folding stability dG unfold |
| --- | --- |
| SAGGSAGGSAGGMELPNLVPVETVPVGDSTVRLYELPGKPLRVTVTENGDNVTVELEEPPSAGGSAGGSAGG [r7_940_JUSTAS] | < -4.18 kJ/mol |
| SAGGSAGGSAGGMKVVFNIHRPDSDEVLTVDDMEKLKETSLEELAKKLEEENGYPVEVVLSAGGSAGGSAGG [r7_259_JUSTAS] | < -4.18 kJ/mol |
| SAGGSAGGSAGGMLPNPKTIKVPLKPGETKEKVKEEAEKKFPPGKITVTVSEDGTATVLVSAGGSAGGSAGG [r7_273_JUSTAS] | < -4.18 kJ/mol |
| SAGGSAGGSAGGMRISIHHPKNGNPRHIPIDDIRNLPGPYKIHVEGPNPELAKEFLEQFSAGGSAGGSAGGS [r10_419_TrROS] | < -4.18 kJ/mol |
| SAGGSAGGSAGGMTVKEIAEKLGLPPGLKVEDIPLDPPNGYFEIEITHDDGPHTYRIPISAGGSAGGSAGGS [r10_17_TrROS] | < -4.18 kJ/mol |
| SAGGSAGGSAGGMVSISVSEDPATGTYTVTATRTGAPRTVTVPVGASEAEARARVEAALSAGGSAGGSAGGS [r10_192_JUSTAS] | < -4.18 kJ/mol |
| SAGGSAGGSAGGNKIVIPFEELEEARENGDPHKARKLVRERGMDPEDVTIEIITPEALKESAGGSAGGSAGG [r7_7_TrROS] | < -4.18 kJ/mol |
| SAGGSAGGSAGGPERLVLASFIPGPRLLHVVEVSLDGVGASISPSVFSIHPDRPDEIEPVSAGGSAGGSAGG [r7_866_TrMRF] | < -4.18 kJ/mol |
| SAGGSAGGSAGGPIKIDVQVMPHDNEWYIMIRREYPYPDGKRQEREIMIPADNVKDLDDISAGGSAGGSAGG [r7_835_TrROS] | < -4.18 kJ/mol |
| SAGGSAGGSAGGPKIEIPMVHLHPNGTITVMRMKMEYDPNGKFEIKKMEMHTVPADDIKDSAGGSAGGSAGG [r7_521_TrROS] | < -4.18 kJ/mol |
| SAGGSAGGSAGGPNPRIIPLTFPVKDKEAVILLPPGVKPASIEVDPEDGRIRVNAVDPLSAGGSAGGSAGGS [r10_906_TrMRF] | < -4.18 kJ/mol |
| SAGGSAGGSAGGPPFQIHIRDKGEERTIPVDSPDDIKELLEEKGAEIKDVHPNSGTITVKSAGGSAGGSAGG [r7_726_TrROS] | < -4.18 kJ/mol |
| SAGGSAGGSAGGPPPEKAAAYLVKYRNPDGGPLGTRPVELPPDRPEVEHDPSFVSVEVASAGGSAGGSAGGS [r10_675_JUSTAS] | < -4.18 kJ/mol |
| SAGGSAGGSAGGPTVTYKPPSGNVRTVEVPASRPEVVAELKAAGGEVVVVDAETGEEVLLSAGGSAGGSAGG [r7_430_JUSTAS] | < -4.18 kJ/mol |
| SAGGSAGGSAGGQPITLPDANNGFKEVEIMPTPKKWRITAENPETGQKKEFPIEDPEAVSAGGSAGGSAGGS [r10_772_TrROS] | < -4.18 kJ/mol |
| SAGGSAGGSAGGRGVLLVFRLDGEVRPTPDGEPVLELTDLEVEEREVTVTRDADGVLHAGSAGGSAGGSAGG [r11_381_TrMRF] | < -4.18 kJ/mol |
| SAGGSAGGSAGGSGELELTVVSPLPDGTVKVTRYRVELPEDGLEITEVETEEVPPEEAGSAGGSAGGSAGGS [r4_389_TrMRF] | < -4.18 kJ/mol |
| SAGGSAGGSAGGSGELTMMMVEPNPDGRVKVRTFKIELPPGGLKIDEVEEKTIPPEDAKSAGGSAGGSAGGS [r4_389_TrROS] | < -4.18 kJ/mol |
| SAGGSAGGSAGGSGNFTIDPALLEEARAEAAAAGEALETIPLKVTRPGGETKTIDIKVGSAGGSAGGSAGGS [r4_367_JUSTAS] | < -4.18 kJ/mol |
| SAGGSAGGSAGGSGNGMKLVKKKEVVKEEGAVVKLPNGETIEVPPDETITVEIEEEVSLSAGGSAGGSAGGS [r4_26_JUSTAS] | < -4.18 kJ/mol |
